# Measurements published in publication PMC5847526 (2018).
# B1: human recombinant FL (rh-FLT3-L), labelled as Red-FL (ligand)
# chain: TQDCSFQHSPISSDFAVKIRELSDYLLQDYPVTVASNLQDEELCGGLWRLVLAQRWMERLKTVAGSKMQGLLERVNTEIHFVTKCAFQPPPSCLRFVQTNISRLLQETSEQLVALKPWITRQNFSRCLELQCQPDSSTLPPPWSPRPLEATAPTAPQPPLLLLLLLPVGLLLLAAAWCLHWQRTRRRTPRPGEQVPPVPSPQDLLLVEH
# modifications: red fluorophore (Red-FL), position not stated
# Biological target: Lumi4-Tb-SNAP-FLT3 on HEK293 cells (UniProt P36888 27-993, Lumi4-Tb on the SNAP tag)
# Sequence (P36888 27-993): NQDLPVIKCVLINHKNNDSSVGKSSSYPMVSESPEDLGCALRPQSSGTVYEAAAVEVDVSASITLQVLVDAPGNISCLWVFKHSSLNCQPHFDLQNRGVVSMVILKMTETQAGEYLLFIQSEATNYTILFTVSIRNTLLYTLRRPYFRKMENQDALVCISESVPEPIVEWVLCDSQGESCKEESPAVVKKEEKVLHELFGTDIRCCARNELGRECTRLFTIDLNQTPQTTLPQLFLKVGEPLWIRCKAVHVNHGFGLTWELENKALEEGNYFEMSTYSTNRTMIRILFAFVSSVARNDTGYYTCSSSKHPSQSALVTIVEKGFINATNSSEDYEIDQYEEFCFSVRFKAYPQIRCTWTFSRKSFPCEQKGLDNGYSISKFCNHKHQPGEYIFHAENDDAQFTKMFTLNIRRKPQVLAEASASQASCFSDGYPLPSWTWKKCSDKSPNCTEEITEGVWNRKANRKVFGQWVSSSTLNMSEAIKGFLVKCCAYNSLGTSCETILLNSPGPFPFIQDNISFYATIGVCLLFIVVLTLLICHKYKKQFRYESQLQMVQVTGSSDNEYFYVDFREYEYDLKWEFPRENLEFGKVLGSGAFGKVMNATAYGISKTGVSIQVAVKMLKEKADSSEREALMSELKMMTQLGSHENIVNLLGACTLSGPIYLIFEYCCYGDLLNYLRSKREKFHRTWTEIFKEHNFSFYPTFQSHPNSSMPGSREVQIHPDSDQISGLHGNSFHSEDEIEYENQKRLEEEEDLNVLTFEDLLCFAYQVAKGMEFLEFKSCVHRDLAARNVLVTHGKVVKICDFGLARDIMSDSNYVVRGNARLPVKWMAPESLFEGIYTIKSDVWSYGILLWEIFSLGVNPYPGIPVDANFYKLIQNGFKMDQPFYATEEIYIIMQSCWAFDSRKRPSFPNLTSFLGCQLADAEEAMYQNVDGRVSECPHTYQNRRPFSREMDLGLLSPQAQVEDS
# Test: FRET
binder,measurement,value
B1,IC50,0.57 nM
